From patent US20260273112A1 (WASHINGTON UNIVERSITY, published 2026)

Target: T1, Recombinant human CD38 protein (R&D, Catalog 2404-AC-010) (human, UniProt P28907 43-300)
T1 construct: In the MST assay the protein was labeled with NT647 (red-maleimide kit) and used at 5 nM; also called purified CD38 protein; purified human CD38 protein
Test: MST, NT647-labeled recombinant human CD38 at 5 nM, peptide titrated, 37 C
Protocol: Microscale thermophoresis (MST) assays determined the binding affinity of synthesized peptides to purified CD38 protein and was performed using the Monolith NT.115 (Nanotemper Technologies, Munich, Germany). […] Recombinant human CD38 protein (R&D, Catalog 2404-AC-010, Minneapolis, MN) was labeled with NT647 (Protein labeling kit red-maleimide, Nanotemper Technologies, Germany) and subsequently diluted to 5 nM in MST-2 buffer (50 mM Tris-HCl, pH 7.4, 150 mM NaCl, 10 mM MgCl₂, 2% DMSO, and 0.1% Tween-20). Fluorescence was assessed in MST-2 buffer. Samples were loaded into NT.115 standard capillaries, and analysis was performed at 37° C., 10% LED power, and 40% MST power. The Kd values were calculated from fragment concentration-dependent changes in normalized fluorescence (Fraction Bound) of different CD38 peptides based on the law of mass action using the MO Affinity Analysis v2.3 software.

Binder | Kd
H-KGGSFSRDWTS-NH2 (Synthetic peptide, high score cluster B) [GGS-SL028 (H-Lys-Gly-Gly-Ser-Phe-Ser-Arg-Asp-Trp-Thr-Ser-NH2)] | 82.6 nM
FSRDWTSGGSK (N-terminal acetyl (AC); C-terminal amide (NH2)) [AC-SL028-GGS (AC-Phe-Ser-Arg-Asp-Trp-Thr-Ser-Gly-Gly-Ser-Lys-NH2)] | 243 nM
